Data set [1] concerns the target T1, FtsZ (E. coli (by the printed UniProt entry; not said in words for the construct)). Put plainly: FRAP.
The target in data set [2] is T1, FtsZ (E. coli). The data set is described as follows: single molecule tracking.
For data set [3], the target named is T1, FtsZ (E. coli). Put plainly: single molecule tracking. The source holds these as a separate data set.
Data set [4] deals with the molecule itself. Put plainly: SEC. (Size exclusion chromatography separates by hydrodynamic size, large species first.)

Like-named read-outs stand apart in the source and are kept apart here.

On to ZapA-Cy5 (natural protein), for which the FRAP recovery half-time in data set [1] amounted to 3.01 s. The lifetime of single molecules on FtsZ filaments in data set [2] came out at 0.94 s; in data set [3], 0.95.

Regarding FtsZ (natural protein), in data set [1], the FRAP recovery half-time (at 6.0 μM ZapA) was determined as 6.66 s and the FRAP recovery half-time (in the absence of ZapA) came out at 7.63 s. Moreover, in data set [2], the lifetime of single FtsZ monomers in the filaments (with ZapA) turned out to be 6.01 s and the lifetime of single FtsZ monomers in the filaments (without ZapA) was found to be 6.59 s.

B1: ZapA (natural protein, UniProt P0ADS2 1-109, looked up)
chain: MSAQPVDIQIFGRSLRVNCPPDQRDALNQAADDLNQRLQDLKERTRVTNTEQLVFIAALNISYELAQEKAKTRDYAASMEQRIRMLQQTIEQALLEQGRITEKTNQNFE
For the molecule B1, in data set [4], the binding result is “binds”.

The record behind these values is article doi:10.1101/580944 (bioRxiv, 2019).
